Measurements published in the supplement of paper PMC7877785.
± gives the uncertainty stated by the source.

Test: self-splicing fitness, log relative to wild type (ln ratio); higher = more splicing; Tetrahymena group I intron in knt gene, E. coli kanamycin selection, DiMSum; sequences stand for … in CUCUCU…GGAGGGAAAAGUUAUCAGGCAUGCACCUGGUAGCUAGUCUUUAAACCAAUAGAUUGCAUCGGUUUAAAAGGCAAGACCGUCAAAUUGCGGGAAAGGGGUCAACAGCCGUUCAGUACCAAGUCUCAGGGGAAACUUUGAGAUGGCCUUGCAAAGGGUAUGGUAAUAAGCUGACGGACAUGGUCCUAACCACGCAGCCAAGUCCUAAGUCAACAGAUCUUCUGUUGAUAUGGAUGCAGUUCACAGACUAAAUGUCGGUCGGGGAAGAUGUAUUCUUCUCAUAAGAUAUAGUCGGACCUCUCCUUAAUGGGAGCUAGCGGAUGAAGUGAUGCAACACUGGAGCCGCUGGGAACUAAUUUGUAUGCGAAAGUAUAUUGAUUAGUUUUGGAGUACUCGUGGUCG
Outline: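 Library with all eight P1ex-region intron nucleotides randomised, intron inside the knt kanamycin-resistance gene on pET-22b(+), in E. coli BL21(DE3). Cells grew overnight at 37°C or 30°C on LB agar with or without 25 μg/mL kanamycin (plus 100 μg/mL carbenicillin, 50 μM IPTG, 0.2% rhamnose), in six replicate transformations. Pooled colonies were amplicon-sequenced on Illumina HiSeq 2500. DiMSum fitness is the error-weighted combination of wild-type-normalised replicate fold changes, kanamycin versus none.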

Sequence	self-splicing fitness (ln) (30 °C)	self-splicing fitness (ln) (37 °C)
GGCUAGCAAUAUUACGAGGG	-2.39 ± 0.21	-2.27 ± 0.42
GGCUAGCAAUAUUACGAGUG	-0.589 ± 0.084	0.347 ± 0.12
GGCUAGCAAUAUUACGCAGG	-3.5 ± 0.28	-1.81 ± 0.19
GGCUAGCAAUAUUACGCGAG	-4.46 ± 0.39	-2.74 ± 0.28
GGCUAGCAAUAUUACGCGAU	-1.74 ± 0.19	-0.776 ± 0.2
GGCUAGCAAUAUUACGCGUA	-0.142 ± 0.14	0.00477 ± 0.15
GGCUAGCAAUAUUACGGAAA	-2.79 ± 0.41	-1.92 ± 0.29
GGCUAGCAAUAUUACGGCGA	-0.177 ± 0.13	0.0471 ± 0.14
GGCUAGCAAUAUUACGGCGG	-1.32 ± 0.13	-0.684 ± 0.19
GGCUAGCAAUAUUACGGGAA	-0.617 ± 0.14	-1.06 ± 0.2
GGCUAGCAAUAUUACGGGGG	-3.9 ± 0.37	-2.09 ± 0.21
GGCUAGCAAUAUUACGGUGU	-0.416 ± 0.062	0.178 ± 0.069
GGCUAGCAAUAUUACGUAAA	-0.62 ± 0.084	-0.198 ± 0.1
GGCUAGCAAUAUUACGUACC	-0.292 ± 0.21	0.368 ± 0.23
GGCUAGCAAUAUUACGUAGA	-0.208 ± 0.079	-0.236 ± 0.1
GGCUAGCAAUAUUACGUAUU	-0.862 ± 0.1	-0.777 ± 0.12
GGCUAGCAAUAUUACGUUCA	-0.464 ± 0.094	0.156 ± 0.11
GGCUAGCAAUAUUACGUUGC	-1.94 ± 0.17	-1.38 ± 0.2
GGCUAGCAAUAUUACGUUGU	-1.59 ± 0.083	-0.434 ± 0.11
GGGAAGCAAUAUUACGACAG	-3.01 ± 0.31	-3 ± 0.37
GGGAAGCAAUAUUACGACCU	-2.31 ± 0.27	
GGGAAGCAAUAUUACGAGGU	-2.81 ± 0.31	
GGGAAGCAAUAUUACGAUAC	-0.528 ± 0.14	-0.986 ± 0.16
GGGAAGCAAUAUUACGCAAG	-2.81 ± 0.16	-1.14 ± 0.14
GGGAAGCAAUAUUACGCAGG	-3.02 ± 0.22	-2.32 ± 0.28

Sequence	self-splicing fitness (ln) (30 °C)	self-splicing fitness (ln) (37 °C)
GGGAAGCAAUAUUACGCAUC	-2.36 ± 0.39	-1.77 ± 0.32
GGGAAGCAAUAUUACGCCGU	-0.357 ± 0.36	-0.232 ± 0.31
GGGAAGCAAUAUUACGCGAU	-3.63 ± 0.27	-0.798 ± 0.17
GGGAAGCAAUAUUACGCGGU	-3.44 ± 0.31	-1.4 ± 0.21
GGGAAGCAAUAUUACGCGUC	-3.64 ± 0.3	-2.86 ± 0.47
GGGAAGCAAUAUUACGCUGA	-2.63 ± 0.33	-1.54 ± 0.25
GGGAAGCAAUAUUACGGGAU		-0.0224 ± 0.27
GGGAAGCAAUAUUACGGGUG	-2.68 ± 0.13	-2.12 ± 0.18
GGGAAGCAAUAUUACGGUUC	-2.44 ± 0.18	-1.03 ± 0.22
GGGAAGCAAUAUUACGGUUG	-4.02 ± 0.33	-2.74 ± 0.22
GGGAAGCAAUAUUACGUCAG	-2.92 ± 0.33	-2.52 ± 0.33
GGGAAGCAAUAUUACGUCAU	-1.42 ± 0.11	-0.7 ± 0.13
GGGAAGCAAUAUUACGUCCA	0.145 ± 0.14	0.69 ± 0.16
GGGAAGCAAUAUUACGUCGC	-1.83 ± 0.16	-0.302 ± 0.17
GGGAAGCAAUAUUACGUGCU	-1.69 ± 0.12	-0.273 ± 0.11
GGGAAGCAAUAUUACGUUCG	-0.436 ± 0.11	0.00472 ± 0.17
GGGAAGCAAUAUUACGUUUU	-2.68 ± 0.23	-1.62 ± 0.25
GGGCAGCAAUAUUACGAAGG	-3.32 ± 0.27	-2.45 ± 0.35
GGGCAGCAAUAUUACGACGU	-0.265 ± 0.1	0.553 ± 0.12
GGGCAGCAAUAUUACGACUG	-2.84 ± 0.2	-0.716 ± 0.27
GGGCAGCAAUAUUACGAGAC	-3.12 ± 0.26	-1.74 ± 0.19
GGGCAGCAAUAUUACGAGGG	-3.93 ± 0.34	-2.39 ± 0.24
GGGCAGCAAUAUUACGAUAC	-1.1 ± 0.11	0.201 ± 0.12
GGGCAGCAAUAUUACGAUUC	-0.524 ± 0.17	0.155 ± 0.15
GGGCAGCAAUAUUACGCCGG	-1.51 ± 0.11	0.118 ± 0.14

Sequence	self-splicing fitness (ln) (30 °C)	self-splicing fitness (ln) (37 °C)
GGGCAGCAAUAUUACGCCGU	-2.84 ± 0.21	-1.01 ± 0.15
GGGCAGCAAUAUUACGCGCU	-2.33 ± 0.19	-1.44 ± 0.35
GGGCAGCAAUAUUACGGAUG	-3.41 ± 0.26	-2.81 ± 0.34
GGGCAGCAAUAUUACGGGGU		-2.84 ± 0.34
GGGCAGCAAUAUUACGGGUC	-2.9 ± 0.25	-2.02 ± 0.23
GGGCAGCAAUAUUACGUCAA	0.3 ± 0.08	0.285 ± 0.088
GGGCAGCAAUAUUACGUCUC	-2.15 ± 0.23	-1.41 ± 0.15
GGGCAGCAAUAUUACGUCUG	-1.11 ± 0.22	-1.04 ± 0.16
GGGCAGCAAUAUUACGUGAA	-0.864 ± 0.079	-0.507 ± 0.083
GGGCAGCAAUAUUACGUGUC	-3.82 ± 0.17	-2.53 ± 0.2
GGGGAGCAAUAUUACGAUGU	-1.64 ± 0.25	-1.55 ± 0.35
GGGGAGCAAUAUUACGCAAU		-1.66 ± 0.48
GGGGAGCAAUAUUACGCCAC	-3.28 ± 0.27	-3.39 ± 0.39
GGGGAGCAAUAUUACGCGCA	-2.35 ± 0.22	-1.32 ± 0.25
GGGGAGCAAUAUUACGGCUA	-0.686 ± 0.18	-0.291 ± 0.17
GGGGAGCAAUAUUACGGGAA		-1.38 ± 0.49
GGGGAGCAAUAUUACGGGUA	-2.64 ± 0.26	-2.25 ± 0.34
GGGGAGCAAUAUUACGGUAA	-2.05 ± 0.28	-2.82 ± 0.3
GGGGAGCAAUAUUACGGUCA		-0.676 ± 0.18
GGGGAGCAAUAUUACGUAAC	-2.06 ± 0.46	-0.204 ± 0.39
GGGGAGCAAUAUUACGUAGA	-2.43 ± 0.31	-1.7 ± 0.4
GGGGAGCAAUAUUACGUCAU		-2.07 ± 0.39
GGGGAGCAAUAUUACGUUAG	-3.73 ± 0.43	-0.485 ± 0.33
GGGUAGCAAUAUUACGAGGC	-3.89 ± 0.47	-2.19 ± 0.25
GGGUAGCAAUAUUACGCUGA	-2.05 ± 0.15	0.00831 ± 0.17

Sequence	self-splicing fitness (ln) (30 °C)	self-splicing fitness (ln) (37 °C)
GGGUAGCAAUAUUACGGAAU	-0.368 ± 0.12	-0.661 ± 0.19
GGGUAGCAAUAUUACGGCCG	-0.902 ± 0.086	-0.295 ± 0.15
GGGUAGCAAUAUUACGGCCU	-3.57 ± 0.38	-2.14 ± 0.46
GGGUAGCAAUAUUACGGGAU	-3.17 ± 0.22	-2.04 ± 0.23
GGGUAGCAAUAUUACGGUUC	-0.821 ± 0.095	0.258 ± 0.13
GGGUAGCAAUAUUACGUCAG		-0.355 ± 0.32
GGGUAGCAAUAUUACGUCGC	-1.04 ± 0.23	0.272 ± 0.21
GGGUAGCAAUAUUACGUCUA	-0.297 ± 0.15	0.226 ± 0.16
GGGUAGCAAUAUUACGUGGA	-3.45 ± 0.2	-2.02 ± 0.097
GGGUAGCAAUAUUACGUUCA	0.0201 ± 0.096	-0.0805 ± 0.12
GGUAAGCAAUAUUACGACGG	-3.74 ± 0.33	-2.84 ± 0.34
GGUAAGCAAUAUUACGAGGG	-2.38 ± 0.14	-2.98 ± 0.24
GGUAAGCAAUAUUACGAUAG	-3.14 ± 0.2	-2.14 ± 0.24
GGUAAGCAAUAUUACGCAAG	-3.39 ± 0.26	-2.03 ± 0.22
GGUAAGCAAUAUUACGCACU		-2.23 ± 0.2
GGUAAGCAAUAUUACGCCCC	-3.4 ± 0.45	
GGUAAGCAAUAUUACGCCCU	-1.86 ± 0.28	-1.35 ± 0.28
GGUAAGCAAUAUUACGCCGC	-3.46 ± 0.43	-1.41 ± 0.27
GGUAAGCAAUAUUACGCUAA	-2.29 ± 0.18	0.0407 ± 0.15
GGUAAGCAAUAUUACGCUAU	-2.53 ± 0.17	-2.05 ± 0.27
GGUAAGCAAUAUUACGGAGA	-3.47 ± 0.23	-2.8 ± 0.22
GGUAAGCAAUAUUACGGAUU	-0.823 ± 0.094	-0.646 ± 0.11
GGUAAGCAAUAUUACGGGAU	-2.82 ± 0.27	-0.913 ± 0.21
